Measured values reported in the nanobody polyreactivity screen of Harvey et al. (2022).

Assay: yeast display, Sf9 membrane polyspecificity reagent, FACS + sequencing; frameworks hold sequencing errors
Method in brief: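 Galactose induction of a Saccharomyces cerevisiae BJ5465 synthetic nanobody display library ran 36–48 hours. The cells were then stained for 1 hour at 4 °C with 10% biotinylated, detergent-solubilized Sf9 membrane reagent, pulled down on streptavidin microbeads and FACS-sorted into low and high (top ~1%) gates on expression and reagent-binding fluorescence. Labels for polyreactivity follow the gate of origin.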
In the case of “QVQLVESGGGLVKAGGSLRLSCAASGITFYIYDMGWYRQAPGKERELVATISWSDGRTYYADSVKGRFTISRDNAKNTVYLQMNSLKPEDTAVYYCASDWWYYQFDYEYWGQGTQVTVSS”, the “polyreactivity (PSR sort gate)” value was “low polyreactivity”. In the case of “QVQLVESGGGLVKAGGSLRLSCAASGLISWLYVMGWYRQAPGKERELVAAIRYSGGRTYYADSVKGRFTISRDNAKNTVYLQMHSMKPEDTAVYYCNALPWALYDSTSIYYYWGQGTQVTVSS”, the “polyreactivity (PSR sort gate)” value was “low polyreactivity”. In the case of “QVQLVESGGGLVKAGGSLRLSCAASGRIFRYYVMGWYRQAPGKERELVASISWRGTSTYYADSVKGRFTISRDNAKNTVYLQMNSLKPEDTAVYYCNAARPGKNYDSWGQGTQVTVSS”, the “polyreactivity (PSR sort gate)” value was “high polyreactivity”. With “QVQLVESGGGLVKAGGSLRLSCAASGRIFSRNAMGWYRQAPGKERELVAAITRRGGNTYYADSVKGRFTISRDNAKNTVYLQMNSLKPEDTAVYYCATRRYYQRWSPGYDYWGQGTQVTVSS” the “polyreactivity (PSR sort gate)” value was “high polyreactivity”. In the case of “QVQLVESGGGLVKAGGSLRLSCAASGRIFWAYAMGWYRQAPGKERELVAAINSGGRTYYADSVKGRFTISRDNAKNTVYLQMNSLKPEDTAVYYCAAAGVYSSDYWGQGTQVTVSS”, the “polyreactivity (PSR sort gate)” value was “low polyreactivity”. For “QVQLVESGGGLVKAGGSLRLSCAASGRTFGSYAMGWYRLAPGTERELVAAITGSGAGTYYADSVKGRFTISRDNAKNTVYLQMNSLKPEDTSVYYCAARRPWQFYYWVQGTQVTVSS”, the “polyreactivity (PSR sort gate)” value was “high polyreactivity”. For “QVQLVESGGGLVKAGGSLRLSCAASGRTFGWYVMGWYRQAPGKEMELVAAISLRGGTTYYADSVKGRFTISRDNAKNTVYLQMNSLNPEDTAVYYCAIAGIRHVTCKFKGYHFGYWGQGTQVTVSS”, the “polyreactivity (PSR sort gate)” value was “low polyreactivity”. With “QVQLVESGGGLVKAGGSLRLSCAASGRTFGYNAMGWYRQAPGKEREFVAAISWSGGRTYYADSVKGRFTISRDNAKNTVYLQMNSLKPEDTAVYYCAAAAPHLSAKMDYWGQGTQVTVSS” the “polyreactivity (PSR sort gate)” value was “low polyreactivity”. In the case of “QVQLVESGGGLVKAGGSLRLSCAASGRTFLRNAMGWYRQAPGKERELVATITRGGSTYYADSVKGRFTISRDNAKNTVYLQMNSLKPEDTAVYYCAKDITGCFRRPDYGYWGQGTQVTVSS”, the “polyreactivity (PSR sort gate)” value was “low polyreactivity”. In the case of “QVQLVESGGGLVKAGGSLRLSCAASGRTFQVYDMGWYRQAPGKERELVAGITRAGSTYYADSVKGRFTISRDNAKNSVYLQMNRLKPEDSAVYYCAASRWHGYNYWGQGTQVTVSS”, the “polyreactivity (PSR sort gate)” value was “high polyreactivity”. With “QVQLVESGGGLVKAGGSLRLSCAASGRTFRDNAMGWYIQAPGKERELVADIDIDSSTYYADSVKGRFTISRDNAKNTVYLQMNSLKPEDTAVYYCAATFTYLGYWYDYWGQCTQVTVSS” the “polyreactivity (PSR sort gate)” value was “low polyreactivity”. In the case of “QVQLVESGGGLVKAGGSLRLSCAASGSIFAFYAMGWYRPAPGKERELVAAINSGGGRTYYEDSVKGRFTISRDNAKYTVYLQMNSLKPEDTAVYYCAARTIHGSNRSYYWGQGTQVTVSS”, the “polyreactivity (PSR sort gate)” value was “high polyreactivity”. In the case of “QVQLVESGGGLVKAGGSLRLSCAASGSIFRYYTMGWYRQAPGKEWELVAAINGSGGSTYYADSVKGRFTISRDTAKNTVYLQMNSLKPEDTAVYYCNRVTKEYGLRQYYYWGQGTQVTVSS”, the “polyreactivity (PSR sort gate)” value was “low polyreactivity”. For “QVQLVESGGGLVKAGGSLRLSCAASGSMFWSYAMGWYRQAPGKERELVAAISSGGSTNYADTVKGRFTISRDNAKNTVYLQMNSLKPEDTAVYYCSARFYTTCVRRKRYDYWGQGTQVNVSS”, the “polyreactivity (PSR sort gate)” value was “high polyreactivity”. With “QVQLVESGGGLVKAGGSLRLSCAASGSTFTYYAMGWYRQAPGKERELVARITWTGGRTYYADSVKGRFTISRGNAKNTVYLQMNSLKPEDTAVNYCNALPYFYETQYDYWGQGTQVTVSS” the “polyreactivity (PSR sort gate)” value was “low polyreactivity”. With “QVQLVESGGGLVKAGGSLRLSCASSGYIFPFNAMGWYRQAPGKERELVAAITNGGRTYYADSVKGRFTISRDNAKNTVYLQMNSLKPDDTSVYYCAAGSKSDMDWGQGTQVTVSS” the “polyreactivity (PSR sort gate)” value was “low polyreactivity”. With “QVQLVESGGGLVKAGGSLRLSCDASGRIFKYYAMGWYRPAPGKEWELVAAISSVGYTNYADSVKGRFTISRDNAKNTVYLQLNSLKPEDTAVYYCAAPYQHYDVNYDSWGQGTQVTVSS” the “polyreactivity (PSR sort gate)” value was “low polyreactivity”. For “QVQLVESGGGLVKAGGSLRLSSAASGYNTNTYAMGWYRQAPGKERELVAAISGSGGSTYYADSVKGRFTMSRDNAKTTVYLQMNSLKPEDTAVYYCNVVVRYPSAYDYWGQGTQVTVSS”, the “polyreactivity (PSR sort gate)” value was “high polyreactivity”. In the case of “QVQLVESGGGLVKAVGSLRLSCAPSGRISGVYAMGWYRQAPGKERELVAAISWSGGPTYYADSVKGRFTISRDNAKNTFYLEMTSLKPEDTAVYYCNGDTGFRSYLRVYWGQGTQVTVSS”, the “polyreactivity (PSR sort gate)” value was “low polyreactivity”. In the case of “QVQLVESGGGLVKEGGSLRLSSAASGSTNRYYAMGLYRQAPGKERELVAGITTGGGRTYYADSEKGRFTISRDNAKYTVYLQMTSLKPEDTAVYYCAADRLSHYWYRISYDYWGQCTQVTVSS”, the “polyreactivity (PSR sort gate)” value was “high polyreactivity”. In the case of “QVQLVESGGGLVKSGGSLRLSCAASGRIFYLYAMGWYRQAPGKERELVAAISRRGGGTSYADSVKGRFTISRDNAKNTVYFQMNSLKPEDTAVYYCNTAYSLGGYWGQGTQVTVSS”, the “polyreactivity (PSR sort gate)” value was “high polyreactivity”. In the case of “QVQLVESGGGLVLAAGSLRLSCAASGFIFGSYAMGWYRQAPGKERELFAAISRSGGRTYYADSVKGRFTISRDNAKNTVYLQMNSLKPEDTAVYYCAAVHLLVYPTYDYWGQGTQVTVSS”, the “polyreactivity (PSR sort gate)” value was “high polyreactivity”. In the case of “QVQLVESGGGLVLAGGRLRLSCAASGFTLDYYTMGWYRLAPGKEREFVAAITRRTGNTYYADSVKGRFTISRDNEKITVYLQMNSLKPEDPAVYYCAATFWPWYSGITYYYWGQGTQVTVSS”, the “polyreactivity (PSR sort gate)” value was “high polyreactivity”. With “QVQLVESGGGLVLAGGSLRLSCAASGFIFATYAMGWYRQAPGKERVLVAAISRRGVRTNYADSVKGRFTISRDNAKNTVYLQMNSLKPEDTAVYYSNAQSHYGKIPMYYWGQGTQVTVSS” the “polyreactivity (PSR sort gate)” value was “high polyreactivity”. In the case of “QVQLVESGGGLVLAGGSLRLSCAASGFIFSPYVRGWYRQAPGKDRELVAAISSIGGSTYYADSVKGRFTISRDNAKNTVFLQMNSLKPEDTAVYYCADSVYYYASRYDYWGQVTQVTVSS”, the “polyreactivity (PSR sort gate)” value was “low polyreactivity”. In the case of “QVQLVESGGGLVLAGGSLRLSCAASGFTFEKSVMGWYRQAPGNEREFVAAITRSGGRTYYADSVKGRFTISRDNAKNTVYLQMNSLKPEDTAVYFCAAAFSRSDTGGGSWGQGTQVTVSS”, the “polyreactivity (PSR sort gate)” value was “high polyreactivity”. With “QVQLVESGGGLVLAGGSLRLSCAASGITFRNYAMGWYRQAPGKEMEFVATISRRAGSTYYADSVKGRFTISRDNAKNTVYLQMNSLKPEDTAVYYCVTYRNWWYDYWGQGTQVTVSS” the “polyreactivity (PSR sort gate)” value was “high polyreactivity”. In the case of “QVQLVESGGGLVLAGGSLRLSCAASGLTFEYNAMGWYRQAPGKEGELVASISSGGGTNYADSVKGRFTISRDNAKHTVYLQMNSLKPEDTAVYYCATDNYDWSSWAFRGYWYDYWGQGTQVTVSS”, the “polyreactivity (PSR sort gate)” value was “low polyreactivity”. For “QVQLVESGGGLVLAGGSLRLSCAASGRIFYQNAMGWYRQAPGKERELVAGITRGGSTYYADSVKGRFTISRDNAKNTVYLQMNSLKPEETAVYYCAVAFWRTKWYDYWGQGTQVTVSS”, the “polyreactivity (PSR sort gate)” value was “low polyreactivity”. With “QVQLVESGGGLVLAGGSLRLSCAASGRTFKKYAMGWYRQAPGKVRELVAAITSGGSTYYADSVKGRFTISRDNAKNTVYLQMNSLKPEDTAVYYCAAASSQHGNTYYYWGQATQVTVSS” the “polyreactivity (PSR sort gate)” value was “high polyreactivity”.
